Targets include Melanocortin 5 receptor (UniProt P33032); Melanocortin 1 receptor (UniProt Q01726); CRHR1 (UniProt P34998).
What all share (assay): cell-based or functional assay
The target in assay [1] is Vasoactive Intestinal Peptide 1 receptor (UniProt P32241).
Chain of Vasoactive Intestinal Peptide 1 receptor (P32241 31-457): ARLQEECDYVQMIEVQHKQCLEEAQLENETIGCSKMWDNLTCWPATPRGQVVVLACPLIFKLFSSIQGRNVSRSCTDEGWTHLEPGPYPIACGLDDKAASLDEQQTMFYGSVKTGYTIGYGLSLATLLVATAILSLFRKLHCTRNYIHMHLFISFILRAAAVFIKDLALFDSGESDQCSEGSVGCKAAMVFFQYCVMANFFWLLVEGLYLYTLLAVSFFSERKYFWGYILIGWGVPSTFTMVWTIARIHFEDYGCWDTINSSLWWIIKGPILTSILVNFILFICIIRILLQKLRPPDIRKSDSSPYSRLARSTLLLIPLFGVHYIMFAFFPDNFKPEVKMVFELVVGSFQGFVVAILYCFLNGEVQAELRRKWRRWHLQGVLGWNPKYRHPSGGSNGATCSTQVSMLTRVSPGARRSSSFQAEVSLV

Chain of Melanocortin 5 receptor (P33032 whole entry): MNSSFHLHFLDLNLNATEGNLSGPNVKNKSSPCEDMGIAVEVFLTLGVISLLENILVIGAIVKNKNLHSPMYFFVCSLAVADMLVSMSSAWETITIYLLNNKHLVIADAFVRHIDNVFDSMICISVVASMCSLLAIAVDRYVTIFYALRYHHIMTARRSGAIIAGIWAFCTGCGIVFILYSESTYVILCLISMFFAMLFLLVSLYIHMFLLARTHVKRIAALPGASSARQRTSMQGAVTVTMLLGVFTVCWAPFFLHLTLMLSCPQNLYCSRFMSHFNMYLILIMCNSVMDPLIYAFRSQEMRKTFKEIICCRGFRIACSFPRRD
Chain of CRHR1 (P34998 24-415 limits assumed): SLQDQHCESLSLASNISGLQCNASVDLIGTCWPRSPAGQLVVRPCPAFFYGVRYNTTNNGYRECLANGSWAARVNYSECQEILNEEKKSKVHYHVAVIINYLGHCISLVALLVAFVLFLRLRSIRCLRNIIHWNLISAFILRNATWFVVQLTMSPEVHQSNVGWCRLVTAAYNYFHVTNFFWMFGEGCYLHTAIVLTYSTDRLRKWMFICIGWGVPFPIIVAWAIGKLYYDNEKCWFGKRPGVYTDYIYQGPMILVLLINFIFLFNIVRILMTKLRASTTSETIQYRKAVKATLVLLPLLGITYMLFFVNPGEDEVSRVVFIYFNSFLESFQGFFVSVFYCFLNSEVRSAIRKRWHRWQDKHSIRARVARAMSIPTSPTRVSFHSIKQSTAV
Chain of Melanocortin 1 receptor (Q01726 whole entry): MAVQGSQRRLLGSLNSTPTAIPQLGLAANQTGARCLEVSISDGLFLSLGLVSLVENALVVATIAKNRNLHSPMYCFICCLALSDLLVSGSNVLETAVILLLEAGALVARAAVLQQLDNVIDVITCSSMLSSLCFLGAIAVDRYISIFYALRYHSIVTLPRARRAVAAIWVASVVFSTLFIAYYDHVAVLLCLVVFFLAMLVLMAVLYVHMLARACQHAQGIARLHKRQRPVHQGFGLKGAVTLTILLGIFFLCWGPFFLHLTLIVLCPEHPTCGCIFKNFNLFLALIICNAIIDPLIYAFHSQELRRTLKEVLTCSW

Regarding “[Nle4-D-Phe7]α-MSH (from UniProt P01189 138-150) (peptide)”, in the assay with Melanocortin 5 receptor, the EC50 of cell response (MDC dye) was 2.9 µM, the EC50 of cell response (NR& H30602) amounted to 1.3 µM, the EC50 of cell response (NY & H30602) was found to be 0.95 µM and the Fmax/ Fb (MDC dye) turned out to be 3.6. In addition, in the assay with Melanocortin 5 receptor, the Fmax/ Fb (NR& H30602) turned out to be 3.2 and the Fmax/ Fb (NY & H30602) was found to be 3.4.

For the substance “α-MSH (from UniProt P01189 138-150) (peptide)”, in the assay with Melanocortin 1 receptor, the EC50 of cell response (MDC dye) was 0.82 µM, the EC50 of cell response (TB & H30602) turned out to be 0.77 µM, the Fmax/ Fb (MDC dye) was 5 and the Fmax/ Fb (TB & H30602) was found to be 5.1.

With “CRF (from UniProt P06850 154-194) (peptide)”, in the assay with CRHR1, the EC50 of cell response (MDC dye) amounted to 28 pM, the EC50 of cell response (NY & H30602) stood at 28 pM, the Fmax/ Fb (MDC dye) stood at 4.2 and the Fmax/ Fb (NY & H30602) was found to be 4.3.

In assay [1], “VIP (from UniProt P01282 125-152) (peptide)” yielded an EC50 of cell response (MDC dye) of 2.4 pM, an EC50 of cell response (TB & H30602) of 5 pM, an Fmax/ Fb (MDC dye) of 4.9 and an Fmax/ Fb (TB & H30602) of 5.

These data come from EP1682577B1.
